In article PMC7267745, “Histidine-Rich Glycoprotein Inhibits High-Mobility Group Box-1-Mediated Pathways in Vascular Endothelial Cells through CLEC-1A” (iScience, 2020):

T1: Histidine-rich glycoprotein (HRG), purified from human plasma (human, UniProt P04196 19-525)
T1 chain: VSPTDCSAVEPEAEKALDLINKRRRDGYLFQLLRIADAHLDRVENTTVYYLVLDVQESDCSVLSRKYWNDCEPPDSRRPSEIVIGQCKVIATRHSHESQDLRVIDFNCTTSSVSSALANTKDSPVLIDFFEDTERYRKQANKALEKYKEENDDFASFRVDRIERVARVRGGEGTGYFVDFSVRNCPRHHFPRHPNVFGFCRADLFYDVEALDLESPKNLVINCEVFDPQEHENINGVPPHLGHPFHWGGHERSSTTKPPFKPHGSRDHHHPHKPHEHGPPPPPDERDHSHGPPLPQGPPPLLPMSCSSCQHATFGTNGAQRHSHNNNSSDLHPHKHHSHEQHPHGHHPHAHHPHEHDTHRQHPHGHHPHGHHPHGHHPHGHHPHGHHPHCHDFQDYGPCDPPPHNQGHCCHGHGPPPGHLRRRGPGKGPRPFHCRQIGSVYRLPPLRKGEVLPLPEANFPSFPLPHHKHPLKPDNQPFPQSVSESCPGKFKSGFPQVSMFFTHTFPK

T2: Histidine-rich glycoprotein (HRG), purified from human plasma (human, UniProt P04196 19-525)
T2 construct: histidine-rich glycoprotein, human, 75 kDa plasma protein; source: purified from human plasma
T2 sequence (looked up): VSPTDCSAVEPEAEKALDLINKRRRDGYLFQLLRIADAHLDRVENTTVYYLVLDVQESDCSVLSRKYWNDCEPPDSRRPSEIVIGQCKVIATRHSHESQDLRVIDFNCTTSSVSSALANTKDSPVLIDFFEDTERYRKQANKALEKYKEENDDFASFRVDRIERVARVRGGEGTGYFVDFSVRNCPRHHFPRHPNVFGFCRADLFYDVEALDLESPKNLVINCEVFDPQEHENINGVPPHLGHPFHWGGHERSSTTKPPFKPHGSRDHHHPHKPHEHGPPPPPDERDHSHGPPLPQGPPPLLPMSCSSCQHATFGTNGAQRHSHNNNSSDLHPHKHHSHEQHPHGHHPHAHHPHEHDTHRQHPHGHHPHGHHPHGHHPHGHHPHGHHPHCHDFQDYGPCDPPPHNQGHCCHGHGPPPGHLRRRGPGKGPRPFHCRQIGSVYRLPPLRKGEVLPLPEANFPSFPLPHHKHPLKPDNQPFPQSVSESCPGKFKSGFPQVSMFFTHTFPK


Assays:
[1] = target: T1, Histidine-rich glycoprotein (HRG), …; experiment: SPR
[2] = target: T2, Histidine-rich glycoprotein (HRG), …; experiment: SPR; BIAcore; exCLEC-1A-Fc fusion protein immobilised on a CM5 sensor chip; HRG flowed over; conditions: both partners purified
[3] = target: T2, Histidine-rich glycoprotein (HRG), …; experiment: SPR; BIAcore; HRG purified from human plasma (5 μg/mL) immobilised on a CM5 chip; exCLEC-1A-Fc (3.125, 6.25, 12.5 or 25 μg/mL) or human recombinant exCLEC-1A flowed for 120 s; conditions: both partners purified

Row | Kd [1] [nM] | Kd [2] [nM] | Kd [3] [nM] | Binder
1 | 400 | – | – | human recombinant exCLEC-1A protein (domain or fragment) QYYQLSNTGQDTISQMEERLGNTSQELQSLQVQNIKLAGSLQHVAEKLCRELYNKAGAHRCSPCTEQWKWHGDNCYQFYKDSKSWEDCKYFCLSENSTMLKINKQEDLEFAASQSYSEFFYSYWTGLLRPDSGKAWLWMDGTPFTSELFHIIIDVTSPRSRDCVAILNGMIFSKDCKELKRCVCERRAGMVKPESLHVPPETLGEGD
2 | – | 10 | 7 | extracellular domain of CLEC-1A-Fc (exCLEC-1A-Fc) fusion protein (Fc fusion, UniProt Q8NC01 74-280, looked up, extracellular domain of CLEC-1A; Source, limits and the kind of Fc are told only in the Transparent Methods (Document S1), if at all) QYYQLSNTGQDTISQMEERLGNTSQELQSLQVQNIKLAGSLQHVAEKLCRELYNKAGAHRCSPCTEQWKWHGDNCYQFYKDSKSWEDCKYFCLSENSTMLKINKQEDLEFAASQSYSEFFYSYWTGLLRPDSGKAWLWMDGTPFTSELFHIIIDVTSPRSRDCVAILNGMIFSKDCKELKRCVCERRAGMVKPESLHVPPETLGEGD
